Where no end group is shown, it is not given here.

Our source for the Kd values is publication PMC3488048 (The Journal of Biological Chemistry, 2012).

In this assay the target is Kindlin-3 (full-length, C-terminal His6 tag removed, for NMR) (mouse, UniProt Q8K1B8 1-665). Briefly: NMR titration.
Sequence of Kindlin-3 (full-length, C-terminal His6 tag removed, for NMR) (Q8K1B8 whole entry): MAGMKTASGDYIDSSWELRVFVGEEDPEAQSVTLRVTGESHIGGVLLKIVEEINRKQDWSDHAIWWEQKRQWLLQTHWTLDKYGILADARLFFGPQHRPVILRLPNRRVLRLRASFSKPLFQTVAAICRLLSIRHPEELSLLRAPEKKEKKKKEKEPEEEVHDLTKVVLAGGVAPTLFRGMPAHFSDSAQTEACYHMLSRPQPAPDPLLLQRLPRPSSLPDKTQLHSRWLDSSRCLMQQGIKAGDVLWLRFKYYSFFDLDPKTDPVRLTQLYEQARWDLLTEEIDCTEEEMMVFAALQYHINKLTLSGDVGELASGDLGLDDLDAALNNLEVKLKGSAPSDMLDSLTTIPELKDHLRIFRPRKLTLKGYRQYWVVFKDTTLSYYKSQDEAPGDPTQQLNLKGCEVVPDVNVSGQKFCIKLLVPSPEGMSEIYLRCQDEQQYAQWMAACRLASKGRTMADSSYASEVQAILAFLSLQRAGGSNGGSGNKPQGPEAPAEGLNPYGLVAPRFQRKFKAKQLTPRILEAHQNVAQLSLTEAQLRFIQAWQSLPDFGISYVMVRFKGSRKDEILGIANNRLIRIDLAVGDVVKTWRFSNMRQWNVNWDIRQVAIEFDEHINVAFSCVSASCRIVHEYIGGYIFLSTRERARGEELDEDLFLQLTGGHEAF

A word on the Kd: it is the concentration at which binding is half-saturated. Low values mean a tighter complex, high ones a looser complex. For KLLMIIHDRREFAKFEKEKMNAKWDTQENPIYKSPINNFKNPNYGRKAGL (domain or fragment, UniProt P05556-5 752-801, looked up, also: uniformly 15N-labelled) [integrin β1D cytoplasmic tail], the dissociation constant Kd is approximately 50 µM.
Take KLLMIIHDRREFAKFEKEKMNAKWDTGENPIYKSAVTTVVNPKYEGK (domain or fragment, UniProt P05556-1 752-798, looked up, also: uniformly 15N-labelled) [integrin β1A cytoplasmic tail]: the equilibrium dissociation constant (Kd) is approximately 50 µM.
